Test results as given in the RNAGym collection of RNA variant scans (doi:10.7554/elife.90254).

B1: LINE1-mini (parent)
chain: GGCAGAGCUCAACACAGCGUGGCAAAGUGGCUGUGGCUAGACUGCC

Variants of: B1
Experiment: self-cleavage, relative activity (ratio to wild type); higher = more cleavage; in vitro, sequencing; the parent is a self-cleaving ribozyme

Variant	self-cleavage
C13U U38C	0.1
G22U U34C	0.44
A41C C45A	0.11
C8A G21U	0.23
C3G G19U	0.56
C18U G29C	0.86
A11U A39C	0.07
G22A C31G	0.1
G17C C37G	0.04
C23A C37A	0.06
G40U C42U	0.07
G17U U28A	0.17
C8A G30C	0.26
C45A C46A	0.24
U9C	0.04
A16G G29U	0.77
U20C G40C	0.06
C23G C31G	0.07
G17C G33U	0.06
A14U C37G	0.05
U20C U34G	0.22
A24C C37U	0.06
G2C G36U	0.1
G17A U20A	0.1

Variant	self-cleavage
A11C G44U	0.03
A4U G35A	0.14
G1U G21A	0.77
G21U G44U	0.5
G36A U38A	0.08
A4C A26G	0.15
A4C U43C	0.08
U9G G30U	0.1
G17U U43C	0.06
A4G U34G	0.08
C15U U32G	0.12
G27C C46A	0.71
G21A A39C	0.68
C10G A25G	0.08
U43A C46A	0.1
U20G U43C	0.04
G7C G17A	0.07
U9A U20A	0.16
G1U G5A	0.2
C15U A26U	0.74
G36A U43A	0.07
G36A U43C	0.31
C13A G35C	0.07
A16U G27C	0.16

Variant	self-cleavage
A4C G36C	0.09
G1C C18G	0.03
G22C U32C	0.11
G2U A39U	0.04
C13U G29C	0.09
A25G A41U	0.19
A25G C42A	0.09
G17A G29C	0.68
U32C G33A	0.05
G27C G29A	0.39
U9G A11C	0.02
G35C C45U	0.08
C15A A39C	0.06
C3U G44U	0.23
C15U G17A	0.07
G1U C3A	0.85
G5U C15A	0.05
A12C C15A	0.03
G22U G30A	1.49
A26C C45G	0.8
C10A C23G	0.07
C31G U34C	0.14
C18U C42U	0.17
C8A C37A	0.12

Variant	self-cleavage
G5C C45U	0.06
C15A C42G	0.04
C10A C13A	0.03
C42G	0.07
C42U	0.35
A24G U34A	0.09
A26C C37U	0.07
C8G G21A	0.32
A11G C37G	0.03
A14U C23U	0.31
C3U U38G	0.04
G27U G33C	0.07
C13A G17A	0.1
U34A G35U	0.06
G1C A6U	0.14
G21C A41G	0.32
G29A G44A	0.36
A6G C23U	0.1
U28C G36U	0.11
G29U C37G	0.04
A12G G22C	0.04
A6U C45A	0.66
A11G C45G	0.03
C10U G19C	0.24

Variant	self-cleavage
G1U A26C	0.32
C10G G17A	0.16
G7A A14G	0.24
U9G C13A	0.19
G1C G35A	0.03
C23G C45U	0.97
G5U G36C	0.04
C15A A26U	0.08
C13U G22C	0.1
C23A G40U	0.14
C10U C13U	0.06
A16C G19C	0.4
G5U G21A	0.28
U20G C45U	1.62
A41U C46U	0.9
C23U A39C	0.29
A16U U28A	0.26
U9A G36C	0.06
G22A G33U	0.22
G2C U28A	0.23
C31A C46A	0.13
C23G A41U	0.53
G19C G30U	0.54
G29U G30C	0.69

Variant	self-cleavage
G17C U43C	0.08
G17A U34C	0.06
U20A A25G	0.26
G30U U34A	0.05
C10U U32G	0.12
U9C G29A	0.02
A4U G29A	0.2
G29C U34G	0.2
A12U A26G	0.22
C8A G44A	0.45
U20C C23G	0.44
G21A G22U	0.56
G7U C8U	0.34
A24U C31U	0.25
C10G A26G	0.12
U9A G29A	0.2
G2C G44C	0.18
U38A G40A	0.17
U9C C13G	0.04
C23G G27U	1.17
A11U C46G	0.06
C13A A25U	0.11
C3A G29A	0.51
G30C C45A	0.33

Variant	self-cleavage
A6G A25C	0.1
C8A C10U	0.08
C8A C10G	0.02
G22U A26U	1.59
U34A C42A	0.05
C37A A41C	0.03
U38C U43A	0.04
U20A A26C	0.76
C18U U38A	0.75
G22U A41G	0.37
A26C G36C	0.11
G19A A39G	0.1
A4U U9G	0.07
C13U U34A	0.09
G22U C46G	0.91
A14C G27C	0.07
A6U C10A	0.07
C10G G27A	0.14
C13G G40U	0.08
A16G A25U	0.31
A24G C45A	1.47
C31A U34G	0.02
G22U U43A	0.06
G19U G44A	0.27

Variant	self-cleavage
C10U C37G	0.02
C10U C37A	0.02
C23A U38A	0.28
C3U C15A	0.08
G33C G40A	0.05
C8U A26G	0.29
G5C G40C	0.1
G21U C46G	1.29
G5C C31G	0.06
A24G G40A	0.13
U32C C42A	0.12
G19U U28C	0.67
G5U A39U	0.11
G19A G29C	1.31
A16G G44A	0.25
U9C C37A	0.02
C42A C46U	0.19
G2U G27C	0.09
A14G C23G	0.45
G40A	0.14
G2U G17U	0.04
G1U G30A	0.43
U20A C46U	0.65
C13G G33A	0.11

Variant	self-cleavage
G33U C37G	0.05
C3A A4G	0.17
G21A G27U	1.35
A11U G30A	0.17
G2U A14C	0.01
U38A C46G	0.38
U38A C46A	0.35
C3U G30C	0.44
A16G U43C	0.04
C15A U20A	0.11
G1A A24U	1.15
G30U G36A	0.19
A25U A39G	0.07
C18A C42A	0.12
C42G C45U	0.05
A14C G21C	0.05
G1U G29A	0.44
U43G G44C	0.32
G33U C45G	0.07
A12U G44A	0.22
A12U G44C	0.17
G19C C37U	0.03
G27A G44U	0.3
G30A C31A	0.4

Variant	self-cleavage
A6C C31A	0.11
A6C C31U	0.22
G17U	0.23
A14C C15G	0.02
U9C C15U	0.04
C42U G44U	0.1
C10A G36A	0.02
C23U U32A	0.2
C13G A26U	0.19
A4C A11C	0.04
G19U G22A	0.78
G30U U38C	1.12
C13G G19A	0.2
G1C	0.13
C10G U38C	0.02
G17U G19A	0.78
G17U G19U	0.14
A6C U9G	0.11
C15A G30U	0.07
A11U A41G	0.05
C15A C46U	0.12
C3A G35U	0.59
G17C G30A	0.94
G5C C42A	0.09

Variant	self-cleavage
G5A G22A	0.18
C15U U34C	0.14
C15A A25G	0.12
U28G C31U	0.47
C13A G27A	0.18
C13A G27C	0.1
G7C C45A	0.1
C13U G44A	0.1
A14C G35U	0.07
G21C	0.72
C8U C23U	0.25
G17U C23G	0.1
A24U U38A	0.34
G1A G21A	1.86
G27A A39G	0.08
G2C G17C	0.05
G27U A39G	0.22
G22C G44U	0.4
G1C G5A	0.05
G7A U38C	0.1
C31U C46U	0.23
U38C A41C	0.04
A4C U9G	0.24
A12C G22A	0.03

Variant	self-cleavage
G27C G35C	0.25
G7A C8A	0.35
G19U U43C	0.07
C3G G30U	0.71
A24G G30C	1.12
U28G C45G	0.27
A26G A39C	0.18
C23U C42G	0.09
A24U A25G	1.28
C3U A25G	0.27
G19C G27A	0.54
A41C C46U	0.04
G35C G36C	0.03
G7U G17C	0.07
U9G G29A	0.08
A6C C45U	0.7
G5A A41G	0.04
A12G	0.04
A16C A25C	0.04
C3G C8U	0.39
G27A G30C	1.53
U20G C23U	0.54
G2C A14G	0.03
C31G G36C	0.04

Variant	self-cleavage
A12G G40A	0.06
G29C G30A	1.73
U28A C46G	0.87
G44A C46A	0.08
A11G C31G	0.03
C13A C42A	0.09
G17A G35C	0.05
G17A G19C	1.09
C31U A39G	0.05
U32G C37U	0.07
A6U U28G	0.6
C10A C46G	0.04
C10U C23G	0.26
C15G A26G	0.03
C3U C45G	0.12
C18G G33U	0.07
U9A A26C	0.23
G30C C46A	0.45
A12C U20G	0.01
A12C U20C	0.01
G1A G29A	0.63
C3U C8A	0.38
G1U G27A	0.36
C23G U32C	0.28

Variant	self-cleavage
A14U U34G	0.75
C31G C45A	0.04
C3U C42A	0.09
C37U U43G	0.11
A26U G33A	0.09
C8G C13U	0.18
G22A C45A	0.67
C18A U28A	0.7
G21A U34G	0.64
G21A C45A	0.97
C10A G21U	0.04
C3U A6G	0.09
C13G U32G	0.05
C13A U28G	0.09
G19U G33A	0.18
A16C G44A	0.05
G2A G33C	0.05
G27A U38C	0.26
U9G U28G	0.06
C8U A11U	0.03
U32G A41C	0.05
U20A G36U	0.05
